{"source": "paper PMC8523606", "about": "“Two fungal flavonoid-specific glucosidases/rutinosidases for rutin hydrolysis and rutinoside synthesis under homogeneous and heterogeneous reaction conditions” (AMB Express, 2021)", "molecules": {"B1": {"name": "PcGlc (Penicillium rubens Wisconsin 54-1255) (protein)", "chain": "TPTSFHLSPNNNISHDYINWRTFHGRGVNLGGWLQQESTIDTSWWSTYSGGASDEWNLCAQLGSKCGPVLEHRYKTFITTRDIDTLASSGVTVLRIPTSYAAWVRVPGSQLYSGKQKEHIHRIATYAIEKYDMHIILDIHSLPGGINGLDIGEAVGHWGWYNNDTALKYSLDAVDSALHFIQFSSGHPQSYTLSPINEPVDNRDFSTFGTPAALSEAGASWVLKYLHAVIDRTKKVNPRIPVMCQGSFKPETYWSPHFDAGANIVFDEHHYYFQYSNSTSANLPEFLCQDAKKSAGDGKFPTFVGEWAIEASDNDLGLRGQNLQAGISAFGQFTRGSSYWTAKFSSNATIKGEGVKGNYWNYEEFVRMGYLDGQVEVPNYCQ", "notes": "secreted from recombinant Pichia pastoris KM71H, purified by cation exchange chromatography, glycosylated"}}, "details_in_all_cases": "50 mM citrate buffer, 10% (v/v) DMSO", "key": {"[1]": {"test_system": "COc1cc(-c2oc3cc(O)cc(O)c3c(=O)c2O[C@@H]2O[C@H](CO[C@@H]3O[C@@H](C)[C@H](O)[C@@H](O)[C@H]3O)[C@@H](O)[C@H](O)[C@H]2O)ccc1O", "assay": "purified protein"}, "[2]": {"test_system": "COc1ccc([C@@H]2CC(=O)c3c(O)cc(O[C@@H]4O[C@H](CO[C@@H]5O[C@@H](C)[C@H](O)[C@@H](O)[C@H]5O)[C@@H](O)[C@H](O)[C@H]4O)cc3O2)cc1O", "assay": "purified protein"}, "[3]": {"test_system": "O=c1c(O[C@@H]2O[C@H](CO)[C@@H](O)[C@H](O)[C@H]2O)c(-c2ccc(O)c(O)c2)oc2cc(O)cc(O)c12", "assay": "purified protein"}, "[4]": {"test_system": "C[C@@H]1O[C@@H](OC[C@H]2O[C@@H](Oc3c(-c4ccc(O)c(O)c4)oc4cc(O)cc(O)c4c3=O)[C@H](O)[C@@H](O)[C@@H]2O)[C@H](O)[C@H](O)[C@H]1O", "assay": "purified protein"}, "[5]": {"substrate": "C[C@@H]1O[C@@H](OC[C@H]2O[C@@H](Oc3c(-c4ccc(O)c(O)c4)oc4cc(O)cc(O)c4c3=O)[C@H](O)[C@@H](O)[C@@H]2O)[C@H](O)[C@H](O)[C@H]1O", "assay": "hydrolysis, aglycone release by HPLC", "format": "biochemical, Penicillium rubens", "text": "(§1) hydrolysis, aglycone release by HPLC on PcGlc"}, "[6]": {"substrate": "COc1ccc([C@@H]2CC(=O)c3c(O)cc(O[C@@H]4O[C@H](CO[C@@H]5O[C@@H](C)[C@H](O)[C@@H](O)[C@H]5O)[C@@H](O)[C@H](O)[C@H]4O)cc3O2)cc1O", "assay": "hydrolysis, aglycone release by HPLC", "format": "biochemical, Penicillium rubens", "text": "as §1"}, "[7]": {"substrate": "COc1cc(-c2oc3cc(O)cc(O)c3c(=O)c2O[C@@H]2O[C@H](CO[C@@H]3O[C@@H](C)[C@H](O)[C@@H](O)[C@H]3O)[C@@H](O)[C@H](O)[C@H]2O)ccc1O", "assay": "hydrolysis, aglycone release by HPLC", "format": "biochemical, Penicillium rubens", "text": "as §1"}, "[8]": {"substrate": "O=c1c(O[C@@H]2O[C@H](CO)[C@@H](O)[C@H](O)[C@H]2O)c(-c2ccc(O)c(O)c2)oc2cc(O)cc(O)c12", "assay": "hydrolysis, aglycone release by HPLC", "format": "biochemical, Penicillium rubens", "text": "as §1"}}, "data": [{"molecule": "McGlc (Mucor circinelloides)", "values": [{"measurement": "Km", "setting": "[1]", "value": "210 ± 90", "unit": "µM"}, {"measurement": "kcat", "setting": "[1]", "value": "69.1 ± 6", "unit": "s⁻¹"}, {"measurement": "kcat/Km", "setting": "[1]", "value": 257000, "unit": "M⁻¹ s⁻¹"}, {"measurement": "Km", "setting": "[2]", "value": "4800 ± 100", "unit": "µM"}, {"measurement": "kcat", "setting": "[2]", "value": "23 ± 1.7", "unit": "s⁻¹"}, {"measurement": "kcat/Km", "setting": "[2]", "value": 4800, "unit": "M⁻¹ s⁻¹"}, {"measurement": "Km", "setting": "[3]", "value": "40 ± 10", "unit": "µM"}, {"measurement": "kcat", "setting": "[3]", "value": "53.9 ± 1.9", "unit": "s⁻¹"}, {"measurement": "kcat/Km", "setting": "[3]", "value": "1.35e+06", "unit": "M⁻¹ s⁻¹"}, {"measurement": "Km", "setting": "[4]", "value": "120 ± 30", "unit": "µM"}, {"measurement": "kcat", "setting": "[4]", "value": "22.7 ± 0.5", "unit": "s⁻¹"}, {"measurement": "kcat/Km", "setting": "[4]", "value": 189000, "unit": "M⁻¹ s⁻¹"}]}, {"molecule": "B1", "values": [{"measurement": "Km", "setting": "[5]", "value": "210 ± 60", "unit": "µM"}, {"measurement": "kcat", "setting": "[5]", "value": "39.3 ± 1.2", "unit": "s⁻¹"}, {"measurement": "kcat/Km", "setting": "[5]", "value": 187000, "unit": "M⁻¹ s⁻¹"}, {"measurement": "Km", "setting": "[6]", "value": "380 ± 90", "unit": "µM"}, {"measurement": "kcat", "setting": "[6]", "value": "9.3 ± 0.8", "unit": "s⁻¹"}, {"measurement": "kcat/Km", "setting": "[6]", "value": 24500, "unit": "M⁻¹ s⁻¹"}, {"measurement": "Km", "setting": "[7]", "value": "290 ± 100", "unit": "µM"}, {"measurement": "kcat", "setting": "[7]", "value": "120 ± 13", "unit": "s⁻¹"}, {"measurement": "kcat/Km", "setting": "[7]", "value": 414000, "unit": "M⁻¹ s⁻¹"}, {"measurement": "Km", "setting": "[8]", "value": "30 ± 6", "unit": "µM"}, {"measurement": "kcat", "setting": "[8]", "value": "30.3 ± 1.5", "unit": "s⁻¹"}, {"measurement": "kcat/Km", "setting": "[8]", "value": "1.01e+06", "unit": "M⁻¹ s⁻¹"}]}]}
